Assay results from the supplement of paper PMC7877785.
± gives the uncertainty stated by the source.

Test: self-splicing fitness, log relative to wild type (ln ratio); higher = more splicing; Tetrahymena group I intron in knt gene, E. coli kanamycin selection, DiMSum; sequences stand for … in CUCUCU…GGAGGGAAAAGUUAUCAGGCAUGCACCUGGUAGCUAGUCUUUAAACCAAUAGAUUGCAUCGGUUUAAAAGGCAAGACCGUCAAAUUGCGGGAAAGGGGUCAACAGCCGUUCAGUACCAAGUCUCAGGGGAAACUUUGAGAUGGCCUUGCAAAGGGUAUGGUAAUAAGCUGACGGACAUGGUCCUAACCACGCAGCCAAGUCCUAAGUCAACAGAUCUUCUGUUGAUAUGGAUGCAGUUCACAGACUAAAUGUCGGUCGGGGAAGAUGUAUUCUUCUCAUAAGAUAUAGUCGGACCUCUCCUUAAUGGGAGCUAGCGGAUGAAGUGAUGCAACACUGGAGCCGCUGGGAACUAAUUUGUAUGCGAAAGUAUAUUGAUUAGUUUUGGAGUACUCGUGGUCG
Procedure, shortened: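 Pooled colonies went to amplicon sequencing on an Illumina HiSeq 2500 after six replicate transformations. The plates were LB agar with 100 μg/mL carbenicillin, 50 μM IPTG and 0.2% rhamnose, with or without 25 μg/mL kanamycin, incubated overnight at 37°C or 30°C. The E. coli BL21(DE3) library had all eight P1ex-region intron nucleotides randomised, the intron placed in the knt kanamycin-resistance gene on pET-22b(+). DiMSum fitness is the error-weighted combination of replicate fold changes, kanamycin against none, normalised to wild type.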

Sequence	self-splicing fitness (ln) (30 °C)	self-splicing fitness (ln) (37 °C)
AUGUAGCAAUAUUACGGGCG	-1.33 ± 0.091	-1.28 ± 0.1
AUGUAGCAAUAUUACGGGGC	-4.82 ± 0.34	-2.87 ± 0.19
AUGUAGCAAUAUUACGGUCA	-0.793 ± 0.14	-0.745 ± 0.13
AUGUAGCAAUAUUACGGUGC	-2.55 ± 0.3	–
AUGUAGCAAUAUUACGUACU	-0.0156 ± 0.06	-0.16 ± 0.073
AUGUAGCAAUAUUACGUAGA	-3.11 ± 0.32	-2.65 ± 0.29
AUGUAGCAAUAUUACGUCGG	-3.01 ± 0.35	-2.18 ± 0.28
AUGUAGCAAUAUUACGUGAC	-4.13 ± 0.34	-0.782 ± 0.2
AUGUAGCAAUAUUACGUGCU	-1.29 ± 0.081	-0.985 ± 0.09
AUGUAGCAAUAUUACGUUAA	-3.07 ± 0.22	-2.3 ± 0.14
AUGUAGCAAUAUUACGUUGU	-3.85 ± 0.15	-1.27 ± 0.092
AUGUAGCAAUAUUACGUUUC	-2.86 ± 0.24	-2.55 ± 0.26
AUUAAGCAAUAUUACGACGG	-2.32 ± 0.23	-2.54 ± 0.41
AUUAAGCAAUAUUACGACGU	0.564 ± 0.087	0.495 ± 0.093
AUUAAGCAAUAUUACGACUC	0.675 ± 0.23	-0.203 ± 0.36
AUUAAGCAAUAUUACGAGCG	-0.827 ± 0.1	-0.58 ± 0.13
AUUAAGCAAUAUUACGAUAA	-1.48 ± 0.12	-0.391 ± 0.14
AUUAAGCAAUAUUACGAUUG	-2.98 ± 0.15	-1.86 ± 0.2
AUUAAGCAAUAUUACGCAAU	-1.74 ± 0.13	-2.34 ± 0.23
AUUAAGCAAUAUUACGCCAU	-1.86 ± 0.2	-1.52 ± 0.15
AUUAAGCAAUAUUACGCCUC	-2.77 ± 0.18	-1.42 ± 0.16
AUUAAGCAAUAUUACGCGUC	-2.77 ± 0.3	-2.19 ± 0.38
AUUAAGCAAUAUUACGCGUU	-1.78 ± 0.11	-0.33 ± 0.12
AUUAAGCAAUAUUACGCUGA	-2.36 ± 0.41	-0.862 ± 0.28
AUUAAGCAAUAUUACGCUGG	-1.25 ± 0.12	-1.39 ± 0.22

Sequence	self-splicing fitness (ln) (30 °C)	self-splicing fitness (ln) (37 °C)
AUUAAGCAAUAUUACGGAAG	-3.07 ± 0.17	-1.29 ± 0.2
AUUAAGCAAUAUUACGGGAA	-2.09 ± 0.26	-1.43 ± 0.23
AUUAAGCAAUAUUACGGUAG	-4.09 ± 0.29	-2.57 ± 0.22
AUUAAGCAAUAUUACGGUCC	-0.321 ± 0.14	-0.358 ± 0.19
AUUAAGCAAUAUUACGGUGG	-3.17 ± 0.28	-1.94 ± 0.22
AUUAAGCAAUAUUACGUACC	-2.05 ± 0.23	0.0479 ± 0.26
AUUAAGCAAUAUUACGUCAA	-2.1 ± 0.22	-0.766 ± 0.16
AUUAAGCAAUAUUACGUGAA	-1.55 ± 0.14	-1.5 ± 0.11
AUUAAGCAAUAUUACGUGGA	-3.32 ± 0.2	-1.05 ± 0.12
AUUAAGCAAUAUUACGUGGC	-2.43 ± 0.15	-1.71 ± 0.16
AUUAAGCAAUAUUACGUGUU	-2.6 ± 0.11	-0.83 ± 0.098
AUUAAGCAAUAUUACGUUCC	-3.07 ± 0.29	-0.839 ± 0.27
AUUCAGCAAUAUUACGAAAU	-1 ± 0.091	-0.557 ± 0.1
AUUCAGCAAUAUUACGACCA	-0.206 ± 0.26	0.501 ± 0.29
AUUCAGCAAUAUUACGAUCU	-0.272 ± 0.057	0.457 ± 0.078
AUUCAGCAAUAUUACGCACU	-0.181 ± 0.062	0.535 ± 0.086
AUUCAGCAAUAUUACGCAUA	-0.701 ± 0.15	-1.07 ± 0.14
AUUCAGCAAUAUUACGCCAA	-2.22 ± 0.29	-1.19 ± 0.27
AUUCAGCAAUAUUACGCCUU	-0.723 ± 0.079	-0.133 ± 0.096
AUUCAGCAAUAUUACGCGGU	-3 ± 0.14	-2.21 ± 0.15
AUUCAGCAAUAUUACGCUAA	-0.96 ± 0.094	-0.0329 ± 0.1
AUUCAGCAAUAUUACGGAUG	-0.985 ± 0.079	-0.448 ± 0.097
AUUCAGCAAUAUUACGGCCC	-0.851 ± 0.16	-0.422 ± 0.21
AUUCAGCAAUAUUACGGGAA	-1.36 ± 0.12	-0.871 ± 0.13
AUUCAGCAAUAUUACGUAUU	-0.474 ± 0.065	-0.558 ± 0.092

Sequence	self-splicing fitness (ln) (30 °C)	self-splicing fitness (ln) (37 °C)
AUUCAGCAAUAUUACGUGCC	-1.51 ± 0.1	-0.682 ± 0.14
AUUCAGCAAUAUUACGUGUG	-1.9 ± 0.062	-0.699 ± 0.067
AUUGAGCAAUAUUACGAAAA	-2.45 ± 0.41	–
AUUGAGCAAUAUUACGAAGG	-2.69 ± 0.36	-2.39 ± 0.3
AUUGAGCAAUAUUACGACGA	-3.19 ± 0.4	-0.517 ± 0.22
AUUGAGCAAUAUUACGAGAC	–	-0.883 ± 0.45
AUUGAGCAAUAUUACGAGGU	-3.14 ± 0.36	-2.02 ± 0.36
AUUGAGCAAUAUUACGCAAC	-3.42 ± 0.26	-2.26 ± 0.39
AUUGAGCAAUAUUACGCAAU	-3.28 ± 0.26	-2.07 ± 0.21
AUUGAGCAAUAUUACGCACU	-0.165 ± 0.14	-0.756 ± 0.15
AUUGAGCAAUAUUACGCCGC	-2.67 ± 0.49	–
AUUGAGCAAUAUUACGCCGU	–	-2.56 ± 0.49
AUUGAGCAAUAUUACGCGAU	-3.68 ± 0.32	-2.33 ± 0.34
AUUGAGCAAUAUUACGCGGA	-4.15 ± 0.35	-2.2 ± 0.14
AUUGAGCAAUAUUACGCGUA	–	-1.87 ± 0.31
AUUGAGCAAUAUUACGCUGU	-1.97 ± 0.25	–
AUUGAGCAAUAUUACGCUUA	-2.75 ± 0.16	-1.02 ± 0.13
AUUGAGCAAUAUUACGGAAC	-3.09 ± 0.23	–
AUUGAGCAAUAUUACGGAAG	–	-2.63 ± 0.32
AUUGAGCAAUAUUACGGAGG	-2.97 ± 0.22	–
AUUGAGCAAUAUUACGGAUU	-2.96 ± 0.23	-1.64 ± 0.23
AUUGAGCAAUAUUACGGCCA	-2.29 ± 0.18	-0.921 ± 0.18
AUUGAGCAAUAUUACGGGGC	-3.06 ± 0.26	-3.09 ± 0.3
AUUGAGCAAUAUUACGGGUG	-4.2 ± 0.28	-2.2 ± 0.3
AUUGAGCAAUAUUACGUACA	-3.85 ± 0.27	-1.87 ± 0.16

Sequence	self-splicing fitness (ln) (30 °C)	self-splicing fitness (ln) (37 °C)
AUUGAGCAAUAUUACGUGUU	-3.91 ± 0.22	-2.34 ± 0.14
AUUGAGCAAUAUUACGUUAA	-3.84 ± 0.37	-1.47 ± 0.26
AUUGAGCAAUAUUACGUUAG	-3 ± 0.14	-2.73 ± 0.19
AUUGAGCAAUAUUACGUUUG	–	-1.91 ± 0.26
AUUUAGCAAUAUUACGAAGG	-3.42 ± 0.38	-2.76 ± 0.41
AUUUAGCAAUAUUACGAAUC	-4.21 ± 0.31	-3.21 ± 0.35
AUUUAGCAAUAUUACGAUAC	-2.44 ± 0.17	-1.01 ± 0.25
AUUUAGCAAUAUUACGAUCC	-0.5 ± 0.4	-0.408 ± 0.23
AUUUAGCAAUAUUACGCAAA	-1.86 ± 0.15	-1.82 ± 0.17
AUUUAGCAAUAUUACGCGCC	-0.641 ± 0.26	-0.828 ± 0.34
AUUUAGCAAUAUUACGCGGA	-1.73 ± 0.23	-0.805 ± 0.17
AUUUAGCAAUAUUACGCGGC	–	-2.08 ± 0.5
AUUUAGCAAUAUUACGCGUC	-3.21 ± 0.3	-2.96 ± 0.47
AUUUAGCAAUAUUACGCUGG	-1.97 ± 0.27	-1.4 ± 0.33
AUUUAGCAAUAUUACGGAAG	-1.33 ± 0.29	-1.49 ± 0.39
AUUUAGCAAUAUUACGGAAU	-2.62 ± 0.28	-2.49 ± 0.26
AUUUAGCAAUAUUACGGCCU	0.607 ± 0.15	-0.166 ± 0.16
AUUUAGCAAUAUUACGGGGG	-2.97 ± 0.42	-2.81 ± 0.47
AUUUAGCAAUAUUACGGUCA	-0.961 ± 0.13	-0.48 ± 0.12
AUUUAGCAAUAUUACGGUCG	-1.98 ± 0.15	-1.38 ± 0.22
AUUUAGCAAUAUUACGGUGU	-2.3 ± 0.095	-1.48 ± 0.11
AUUUAGCAAUAUUACGUCGC	-3.64 ± 0.26	-2.2 ± 0.21
AUUUAGCAAUAUUACGUCUU	-0.374 ± 0.12	0.156 ± 0.17
AUUUAGCAAUAUUACGUGAC	-2.58 ± 0.18	-1.49 ± 0.36
